From IntAct's records for PubMed 18617507

B1: Serine/threonine-protein kinase VRK1 (Homo sapiens), Q99986 (parent)
chain: MPRVKAAQAGRQSSAKRHLAEQFAVGEIITDMAKKEWKVGLPIGQGGFGCIYLADMNSSESVGSDAPCVVKVEPSDNGPLFTELKFYQRAAKPEQIQKWIRTRKLKYLGVPKYWGSGLHDKNGKSYRFMIMDRFGSDLQKIYEANAKRFSRKTVLQLSLRILDILEYIHEHEYVHGDIKASNLLLNYKNPDQVYLVDYGLAYRYCPEGVHKEYKEDPKRCHDGTIEFTSIDAHNGVAPSRRGDLEILGYCMIQWLTGHLPWEDNLKDPKYVRDSKIRYRENIASLMDKCFPEKNKPGEIAKYMETVKLLDYTEKPLYENLRDILLQGLKAIGSKDDGKLDLSVVENGGLKAKTITKKRKKEIEESKEPGVEDTEWSNTQTEEAIQTRSRTRKRVQK

Variants of: B1
Settings: with ran_human RAN

effect of a mutation on the interaction | Variant
decreasing interaction | K179E
